According to publication doi:10.1101/2025.02.07.637128 (bioRxiv, 2025):
“And” between values parts separate entries of the source, which are not always exact repeats. Identical values can stand only once.

B1: Pneumolysin (PLY) toxin (natural protein)
chain: MANKAVNDFILAMNYDKKKLLTHQGESIENRFIKEGNQLPDEFVVIERKKRSLSTNTSDISVTATNDSRLYPGALLVVDETLLENNPTLLAVDRAPMTYSIDLPGLASSDSFLQVEDPSNSSVRGAVNDLLAKWHQDYGQVNNVPARMQYEKITAHSMEQLKVKFGSDFEKTGNSLDIDFNSVHSGEKQIQIVNFKQIYYTVSVDAVKNPGDVFQDTVTVEDLKQRGISAERPLVYISSVAYGRQVYLKLETTSKSDEVEAAFEALIKGVKVAPQTEWKQILDNTEVKAVILGGDPSSGARVVTGKVDMVEDLIQEGSRFTADHPGLPISYTTSFLRDNVVATFQNSTDYVETKVTAYRNGDLLLDHSGAYVAQYYITWDELSYDHQGKEVLTPKAWDRNGQDLTAHFTTSIPLKGNVRNLSVKIRECTGLAWEWWRTVYEKTDLPLVRKRTISIWGTTLYPQVEDKVEND

Experiments:
Concanavalin A = assay: resistive pulse sensing with PLY nanopores
[1] = molecular target: the molecule itself

Molecule	stoichiometry N (Concanavalin A)	stoichiometry N [1] [monomers]
Concanavalin A (natural protein)	2 and 4	
B1		35 ± 2
